A short description of experiment [1]: ferrous iron (Fe++) binding capacity of LF. The conditions noted are these: following sodium peroxinitrite-induced nitration of the iron-containing form of the protein. From the text: As noted above, LF binds ferrous iron (Fe++) and controls iron distribution throughout the body and its ability to bind to inflammatory and other cell membranes and impact the activities of these cells through its iron binding activities and other mechanisms. The inventors hypothesized that the antibacterial effect may be linked to the iron binding activity of LF and that this antibacterial effect may be disrupted by nitration.
However, sodium peroxinitrite caused changes that went far beyond the mere nitration of a few tyrosine residues to include destruction of tyrosine and tryptophan which at least in part were converted to unidentified reaction products. Nitration can occur as a consequence of the formation of reactive nitrogen species in the body and as a result of drug or chemical reactions, and/or environmental toxins in polluted air, water, or other routes of intake.

The subject of the next experiment is E. coli (ATCC 25922). Put plainly: standard broth dilutions susceptibility test, read at 600 nm. The format is cell-based. The method, then: The following methods were used to conduct the experiments described in Examples 1-3, below: The experiments were conducted using the standard broth dilutions susceptibility test (Jorgensen, J. H.; Turnidge, J. D., Susceptibility test methods: dilution and disk diffusion methods. In Manual of Clinical Microbiology, Eleventh Edition, American Society of Microbiology: 2015; pp 1253-73). Briefly, 1 μl of glycerol stock aliquot of E. coli (ATCC 25922) was inculcated into Tryptic Soya agar (TSA) (Sigma Aldrich 22091) plates and incubated at 37° C. for 24 hrs. Subsequently, 3-5 separate colonies were selected and transferred into 4 ml Tryptic Soya broth (TSB) (Sigma Aldrich 22092) and incubated at 37° C. for 24 hrs. After incubation, samples were diluted 4 ml into 50 ml TSB to make E. coli stock. 200 μl samples were then placed into wells of a 96-microwell plate. All samples were prepared in TSB, (Blank) using TSB, ERGO (OXIS International), LF (Sigma Aldrich) and NLF were diluted to 1 mg/ml. The nitration reaction was prepared following the method reported by Selzle et al (Determination of nitration degrees for the birch pollen allergen Bet v 1. Analytical and Bioanalytical Chemistry 2013, 405(27):8945-49). According to this procedure, 400 μl aliquots of 5.0 mg/ml (±5%) LF in aqueous solution were pipetted into glass vials. […] Using the plate reader (Tecan Infinite, M1000 PRO). […]
Background: Dilution methods test growth across graded concentrations, often in twofold steps.

B1: LF: Lactoferrin (LF) is an 80 kDa glycoprotein that exists in mucosal secretions from exocrine glands and neutrophil granules (protein, UniProt P02788 20-710, looked up)
Lactotransferrin: GRRRSVQWCAVSQPEATKCFQWQRNMRKVRGPPVSCIKRDSPIQCIQAIAENRADAVTLDGGFIYEAGLAPYKLRPVAAEVYGTERQPRTHYYAVAVVKKGGSFQLNELQGLKSCHTGLRRTAGWNVPIGTLRPFLNWTGPPEPIEAAVARFFSASCVPGADKGQFPNLCRLCAGTGENKCAFSSQEPYFSYSGAFKCLRDGAGDVAFIRESTVFEDLSDEAERDEYELLCPDNTRKPVDKFKDCHLARVPSHAVVARSVNGKEDAIWNLLRQAQEKFGKDKSPKFQLFGSPSGQKDLLFKDSAIGFSRVPPRIDSGLYLGSGYFTAIQNLRKSEEEVAARRARVVWCAVGEQELRKCNQWSGLSEGSVTCSSASTTEDCIALVLKGEADAMSLDGGYVYTAGKCGLVPVLAENYKSQQSSDPDPNCVDRPVEGYLAVAVVRRSDTSLTWNSVKGKKSCHTAVDRTAGWNIPMGLLFNQTGSCKFDEYFSQSCAPGSDPRSNLCALCIGDEQGENKCVPNSNERYYGYTGAFRCLAENAGDVAFVKDVTVLQNTDGNNNEAWAKDLKLADFALLCLDGKRKPVTEARSCHLAMAPNHAVVSRMDKVERLKQVLLHQQAKFGRNGSDCPDKFCLFQSETKNLLFNDNTECLARLHGKTTYEKYLGPQYVAGITNLKKCSTSPLLEACEFLRK
Turning to B1, the “iron-binding capacity of LF” value in experiment [1] was “remained intact”. For the same molecule, in the experiment on E. coli (ATCC 25922) (LF 1 mg/ml or 2 mg/ml, ERGO 5 mM or 50 mM, compared to growth of E. coli without additions, FIGS. 1A and 1B), the “growth of E. coli” value is “reduced the growth of E. coli”.

B2: nitrated LF: LF nitrated with sodium peroxynitrite at ONOO-/Tyr molar ratios of 10/1 and 40/1 (protein, UniProt P02788 20-710, looked up)
Lactotransferrin: B1 Lactotransferrin
modifications: tyrosine nitration by peroxynitrite
For B2, the “inhibition of growth of E. coli by previously nitrated LF” value with E. coli (ATCC 25922) (LF nitrated with sodium peroxynitrite, compared to native (non-nitrated) LF) is recorded as “did not inhibit the growth of E. coli as much as adding native (non-nitrated) LF”.

These data come from patent publication US11957737B2, “Methods of treating microbial infection and inflammation” (Colorado Seminary, Owner and Operator of University of …, priority 2017, dated 2024).
